Assays:
Cathepsin B = Cathepsin B (Bos taurus, UniProt P07688); assay: Cathepsin B digestion of MGO-modified MRJP, native PAGE; assay type: biochemical; conditions: 37° C.
Method: Cathepsin B working reagent solution was prepared (1:50) from Cathepsin B stock solution in the buffer system containing 100 mM sodium acetate, 2 mM EDTA and 2.5 mM 2-mercaptoethanol, pH 5.0.
Cathepsin digestion was performed on selected samples of SEC fractions. Typically, 10 μl of Cathepsin B working solution was mixed with 20 μl of protein sample and digested at 37° C. for overnight. After hydrolysis, the digests were prepared for native PAGE analysis.
Samples used in the Cathepsin B digestion were: 1) Crude MRJP protein; 2) Desalted fraction (first big peak) of MGO-modified MRJP at pH 4.0 for 9 days sample; 3) Desalted fraction (first big peak) of MGO-modified MRJP in PBS (pH 7.5) for 9 days sample; 4) SEC fractions of pH 5.0 fractions; 5) SEC fractions of reaction 221.
For hydrolysis, 10 μL of a 1 mg/mL solution (10 μg) of Cathepsin B was used. Thus, a very high level of enzyme activity was employed for these experiments. Moreover, the reaction was performed over two days at 37° C. Under these conditions, we expected to see complete or near complete hydrolysis of the MRJP proteins.

[1] = Anti-inflammatory activity of MGO-modified proteins (results not shown)
Description: As used herein, “anti-inflammatory capacity” is defined as the capacity to clinically reduce inflammation or the symptoms of inflammation in cellular tissue. Anti-inflammatory capacity may be determined using the phagocytosis inhibition assay (PIA) described in PCT/NZ PCT/NZ/2011/000271 or the DCFDA assay also described in PCT/NZ/2011/000271 or the anti-inflammatory capacity may also be determined by the inhibition of Cathepsin B as described in detail below.

B1: native hexamer form of MRJP1: unmodified major royal jelly protein 1 (SEQ ID NO: 1), about 300 kDa hexamer (protein, listed as Apis mellifera)
chain: MTRLFMLVCLGIVCQGTTGNILRGESLNKSLPILHEWKFFDYDFGSDERRQDAILSGEYDYKNNYPSDIDQWHDKIFVTMLRYNGVPSSLNVISKKVGDGGPLLQPYPDWSFAKYDDCSGIVSASKLAIDKCDRLWVLDSGLVNNTQPMCSPKLLTFDLTTSQLLKQVEIPHDVAVNATTGKGRLSSLAVQSLDCNTNSDTMVYIADEKGEGLIVYHNSDDSFHRLTSNTFDYDPKFTKMTIDGESYTAQDGISGMALSPMTNNLYYSPVASTSLYYVNTEQFRTSDYQQNDIHYEGVQNILDTQSSAKVVSKSGVLFFGLVGDSALGCWNEHRTLERHNIRTVAQSDETLQMIASMKIKEALPHVPIFDRYINREYILVLSNKMQKMVNNDFNFDDVNFRIMNANVNELILNTRCENPDNDRTPFKISIHL
modifications: native hexamer
- Hydrolysis by Cathepsin B (Cathepsin B): readily degraded

B2: monomeric form of royalactin: unmodified monomeric MRJP1 (royalactin) (protein)
chain: NILRGESLNKSLPILHEWKFFDYDFGSDERRQDAILSGEYDYKNNYPSDIDQWHDKIFVTMLRYNGVPSSLNVISKKVGDGGPLLQPYPDWSFAKYDDCSGIVSASKLAIDKCDRLWVLDSGLVNNTQPMCSPKLLTFDLTTSQLLKQVEIPHDVAVNATTGKGRLSSLAVQSLDCNTNSDTMVYIADEKGEGLIVYHNSDDSFHRLTSNTFDYDPKFTKMTIDGESYTAQDGISGMALSPMTNNLYYSPVASTSLYYVNTEQFRTSDYQQNDIHYEGVQNILDTQSSAKVVSKSGVLFFGLVGDSALGCWNEHRTLERHNIRTVAQSDETLQMIASMKIKEALPHVPIFDRYINREYILVLSNKMQKMVNNDFNFDDVNFRIMNANVNELILNTRCENPDNDRTPFKISIHL
- Hydrolysis by Cathepsin B (Cathepsin B): readily degraded

B3: MGO-modified MRJP3: major royal jelly protein 3 chemically modified by methylglyoxal (protein, UniProt Q17060 21-544, looked up)
Major royal jelly protein 3: AAVNHQRKSANNLAHSMKVIYEWKHIDFDFGSDERRDAAIKSGEFDHTKNYPFDVDRWRDKTFVTIERNNGVPSSLNVVTNKKGKGGPLLRPYPDWSFAKYEDCSGIVSAFKIAVDKFDRLWVLDSGLVNNNQPMCSPKLLTFDLKTSKLVKQVEIPHNIAVNATTGMGELVSLAVQAIDRTNTMVYIADEKGEGLIMYQNSDDSFHRLTSNTFDYDPRYTKLTVAGESFTVKNGIYGIALSPVTNNLYYSPLLSHGLYYVDTEQFSNPQYEENNVQYEGSQDILNTQSFGKVVSKNGVLFLGLVGNSGIACVNEHQVLQRESFDVVAQNEETLQMIVSMKIMENLPQSGRINDPEGNEYMLALSNRMQKIINNDFNFNDVNFRILGANVDDLMRNTRCGRYHNQNAGNQNADNQNADNQNANNQNADNQNANKQNGNRQNDNRQNDNKQNGNRQNDNKQNGNRQNDNKQNGNRQNGNKQNDNKQNGNRQNDNKRNGNRQNDNQNNQNDNNRNDNQVHHSSKLH
modifications: methylglyoxal-modified
notes: major royal jelly protein 3 chemically modified by methylglyoxal
- Anti-inflammatory activity [1]: enhanced anti-inflammatory properties
